Reference: patent US7655420B2, “Methods to increase or decrease bone density” (Celltech R & D, Inc., priority 2002, dated 2010)
Entries after “also recorded” stand apart in the source; their conditions may differ.

Tests used:
hMSC cells [1] = assay: CellTiterGlo viability assay of hMSC cells; assay type: cell-based, human; conditions: Osteoblast-Inducing media, increasing amounts of sclerostin, 1 week, versus control
Procedure: (§1) Human mesenchymal (hMSC) cells were plated in Osteoblast-inducing media (Biowhittaker's MSCGM medium supplemented with 100 nM dexamethasone, 50 μg/ml ascorbic acid, and 10 mM β-glycerophosphate) at a density of 10,000 cells/cm^2 in 96-well dishes.
For cell viability assays, cells were treated with a partially purified preparation of bacculovirus-expressed human sclerostin (0 to 20 μg/ml) or an equal volume of a protein preparation purified from Sf9 conditioned media (control) for 1 week. Sclerostin and control were refreshed upon media change. Cells were then lysed and processed using Promega's CellTiterGlo Luminescence Viability Assay.

[2] = system: alkaline phosphatase (ALP) activity in hMSC cells; assay: alkaline phosphatase activity in differentiating hMSC cells; assay type: cell-based, human; conditions: for basal alkaline phosphatase activity, increasing concentrations (dose-dependent) / ALP activity: hMSC cells, Osteoblast-Inducing media; for ALP activity: 7 days
Procedure: (§2) hMSC cells were plated in 96-well tissue culture dishes at a density of 10,000 cells/cm^2 in Osteoblast-Inducing medium. Partially purified preparations of baculovirus-expressed sclerostin protein were prepared in sterile PBS using NAP-5 columns prior to use. Human sclerostin protein (0 to 30 μg/ml) or an equal volume of Sf9 conditioned media (Control) was added to cultures of hMSC cells at various times after plating (1 day, 8 days, 15 days, or 21 days). The effects of sclerostin on osteoblastic differentiation were assessed by measuring alkaline phosphatase activity (ALP, determined in cell layers using DEAA buffer (Pierce) containing 0.5% NP-40 and 10 mM p-nitrophenylphosphate), synthesis of collagen type I (Prolagen C ELISA), and calcium deposition for mineralization (colorimetric assay of acid lysates of cell layers, Sigma).

[3] = system: caspase activity in hMSC cells; assay: apoptosis of hMSC cells by caspase activity (Homogeneous Caspase ELISA); assay type: cell-based, human; conditions: for time after treatment for which caspase activity remained elevated: hMSC cells treated with sclerostin; for caspase activity: hMSC in osteoblast-inducing media, 20 μg/ml sclerostin or other protein, 24 hours
Procedure: as §1
(§3) For apoptosis assays, cells were treated with sclerostin or commercially available preparations of the BMP antagonists noggin, chordin, gremlin or twisted gastrulation (Tsg) for 24 hours prior to assay for caspase activity. In some experiments, cells were treated for various times with a partially purified preparation of baculovirus-expressed human sclerostin (0 to 30 μg/ml) or an equal volume of a protein preparation purified from Sf9 conditioned media (control) in the absence or presence of Calbiochem's caspase inhibitors. Cells were harvested and processed for apoptosis assays using the Homogeneous Caspase ELISA (Roche) or Cell Death (Histone-Associated DNA Fragmentation, Roche).

[4] = system: BMP-6 stimulated alkaline phosphatase activity; assay: BMP-6 stimulated alkaline phosphatase activity in mouse mesenchymal C3H10T1/2 cells; assay type: cell-based
Procedure: C3H10T1/2 cells (ATCC Deposit No. CCL-226) were plated in 96-well dishes at a density of 25,000 cells per well in complete growth medium (DMEM with high glucose and glutamine supplemented with 10% FCS, 1% penicillin/streptomycin, 0.1 mM non-essential amino acids, 1 mM sodium pyruvate, 55 μM β-mercaptoethanol, and 20 mM HEPES, pH 7.3). C3H10T1/2 cells were used in a short-term (72 hr) assay to determine the effects of human sclerostin protein on BMP-induced ALP activity. Partially purified preparations of bacculovirus-expressed sclerostin protein were prepared in sterile PBS using NAP-5 columns prior to use. Sclerostin protein (0 to 50 μg/ml) or an equal volume of Sf9 conditioned media (control) was pre-incubated with 500 ng/ml BMP-6 for 1 hr prior to addition to cells. For comparison, similar incubations were carried out with anti-BMP-6 antibody and noggin. Cells were harvested 72 hrs later for determination of ALP activity.
To test the specificity of the sclerostin effect, human sclerostin that was synthesized with a FLAG tag, was pre-incubated for 2 hrs at 4° C. with an anti-FLAG antibody coupled to agarose beads. The mixture was then spun down at 10,000×g for 15 minutes at 4° C. and the supernatant treated as “sclerostin protein” in the above assay.

osteoblastic markers = assay: RT-PCR of osteoblastic markers in differentiating hMSC cells treated with sclerostin; assay type: cell-based, human; conditions: sclerostin 10 μg/ml, 40 hrs
Procedure: FIG. 14 illustrates that human sclerostin protein decreases expression of osteoblastic markers in cultures of differentiating hMSC cells. hMSC cells were plated in Osteoblast-Inducing media. After 3 days, partially purified sclerostin protein (10 μg/ml) or proteins purified from Sf9 conditioned media (control) were added. Cells were harvested after 40 hrs and RNA was prepared for RT-PCR analyses of osteoblastic markets.
To determine the effect of sclerostin protein on the expression of osteoblastic markers in cultures of differentiating hMSC cells, RNA was isolated after a 40-hr treatment and analyzed by RT-PCR (FIG. 14).

[5] = system: alkaline phosphatase activity in primary human osteoblasts; assay: histochemical staining for alkaline phosphatase in primary human osteoblasts; assay type: cell-based; conditions: primary human osteoblasts in Inducing media, Sclerostin 20 μg/ml, 7 days
Procedure: Primary human osteoblasts were grown in regular growth media or in Inducing media (to promote differentiation) and then treated with Sclerostin (20 μg/ml) or Control (protein purified from Sf9 conditioned media) for 7 days prior to histochemical staining for alkaline phosphatase activity. Osteoblasts grown in regular growth media expressed low, basal levels of ALP (“No Treatment,” far right panel).

[6] = system: alkaline phosphatase (ALP) activity in hMSC cells; assay: alkaline phosphatase activity in differentiating hMSC cells; assay type: cell-based, human; conditions: BMP-6 500 ng/ml plus increasing concentrations of sclerostin-Flag protein
hMSC cells [7] = assay: apoptosis of hMSC cells by TUNEL staining; assay type: cell-based, human; conditions: Sclerostin 20 μg/ml, 24 hrs
Procedure: as §1
For apoptosis determination by TUNEL staining, cells were treated for 24 hrs with a partially purified preparation of bacculovirus-expressed human sclerostin (20 μg/ml) or an equal volume of a protein preparation purified from Sf9 conditioned media (control). Cells were fixed with paraformaldehyde and processed using Roche's In Situ Cell Death Detection kit.

[8] = system: mineralization (calcium deposition) in hMSC cells; assay: mineralization (calcium deposition) in hMSC cells; assay type: cell-based, human; conditions: for mineralization (calcium deposition), increasing concentrations: hMSC cells, Osteoblast-Inducing media, protein added at 8 days, another 13 days
Procedure: FIG. 12B illustrates that human sclerostin decreases mineralization (calcium deposition) in hMSC cells in a dose-dependent manner. hMSC cells were plated in Osteoblast-Inducing media. Partially-purified sclerostin protein or proteins purified from Sf9 conditioned media (control) were added the next day. Cultures were maintained for 8 days, treated with sclerostin or control proteins and maintained for another 13 days before testing for mineralization. As illustrated, increasing concentrations of sclerostin give rise to diminished mineralization.
as §2

hMSC cells [9] = assay: apoptosis of hMSC cells by histone-associated DNA fragmentation ELISA; assay type: cell-based, human; conditions: increasing amounts of sclerostin, 24 hrs
Procedure: as §1, §3

[10] = hMSC cells treated with about 10 to 15 μg/ml of the protein, p<0.001 to control

B1: sclerostin: partially purified baculovirus-expressed human sclerostin protein, SOST gene product (SEQ ID NO:3); also made with a FLAG tag (protein, listed as Homo sapiens)
chain: MQLPLALCLVCLLVHTAFRVVEGQGWQAFKNDATEIIPELGEYPEPPPELENNKTMNRAENGGRPPHHPFETKDVSEYSCRELHFTRYVTDGPCRSAKPVTELVCSGQCGPARLLPNAIGRGKWWRPSGPDFRCIPDRYRAQRVQLLCPGGEAPRARKVRLVASCKCKRLTRFHNQSELKDFGTEAARPQKGRKPRPRARSAKANQAELENAY
modifications: optional FLAG tag
Which “viability of hMSC cells” value (hMSC cells [1]) does the source give for B1 here?
Its value is “significantly reduced; also recorded: decreases the viability”.

What about the “decrease of alkaline phosphatase activity” value [2, 10] of the same molecule?
Its value is “about 50%”.

And the “basal alkaline phosphatase activity, increasing concentrations (dose-dependent)” value [2]?
Its value is “significantly reduced; also recorded: decreased”.

What about the ALP activity ([2]; protein at 1 μg/ml) of the same molecule?
The ALP activity was “decreased”.

And the ALP activity ([2]; protein at 5 μg/ml)?
The ALP activity was “decreased”.

What about the “basal alkaline phosphatase activity, increasing concentrations (dose-dependent)” value ([2]; listed as Sclerostin) of the same molecule?
The value was “decreased”.

What about the “basal alkaline phosphatase activity, increasing concentrations (dose-dependent)” value ([2]; listed as human sclerostin) of the same molecule?
The value was “decreases”.

And the “time after treatment for which caspase activity remained elevated” value ([3]; listed as Sclerostin)?
Its value is “up to 72 hrs”.

And the “time after treatment for which caspase activity remained elevated” value ([3]; listed as human sclerostin)?
Its value is 72 h.

What about the “caspase activity, increasing amounts (dose-dependent)” value ([3]; hMSC cells, 24 hrs) of the same molecule?
The value was “significantly elevated; also recorded: increased caspase activity”.

What about the caspase activity [3] of the same molecule?
Its caspase activity is “significantly increased”.

What about the caspase activity ([3]; listed as Sclerostin) of the same molecule?
Its caspase activity is “increased”.

What about the “stimulatory effect of BMP-6 on alkaline phosphatase activity (antagonism)” value ([4]; 500 ng/ml BMP-6, 72 hrs) of the same molecule?
The value was “antagonized”.

And the “antagonism of BMP-6 after immuno-depletion with anti-Flag M2 antibody/agarose complex” value ([4]; Flag-tagged sclerostin preparation)?
The value was “completely abolished”.

And the “IC50, decrease of BMP-6 stimulated alkaline phosphatase activity” value ([4]; pre-incubated with 500 ng/ml BMP-6 for 1 hr, 72 hrs)?
The value was 10 µg/mL.

What about the “RNA levels for osteoblast phenotypic markers PTHr, Type I collagen, BMP-2 and BMP-6” value (osteoblastic markers) of the same molecule?
Its value is “significantly reduced”.

What about the “RNA levels of markers for adipocytes (PPARγ2) or undifferentiated mesenchymal cells (endoglin)” value (osteoblastic markers) of the same molecule?
Its value is “not affected”.

And the “amount of ALP expressed (histochemical stain)” value [5]?
Its value is “marked decrease”.

And the “BMP-6 induced alkaline phosphatase activity” value [6]?
Its value is “reduced; also recorded: decreased”.

What about the “Tunel staining for apoptotic nuclei” value (hMSC cells [7]) of the same molecule?
The value was “Increased staining for apoptotic nuclei”.

What about the “Tunel staining for apoptotic nuclei” value (hMSC cells [7]; listed as human sclerostin) of the same molecule?
Its value is “undergo apoptosis”.

And the “decrease of mineral deposition” value [8, 10]?
Its value is “about 50%”.

And the “mineralization (calcium deposition), increasing concentrations” value ([8]; listed as Sclerostin)?
Its value is “decreased”.

And the “mineralization (calcium deposition), increasing concentrations” value ([8]; listed as human sclerostin)?
The value was “decreases”.

What about the “amounts of histone-DNA fragments” value (hMSC cells [9]) of the same molecule?
The value was “significantly elevated; also recorded: greater amounts of histone-DNA fragments”.
